The target in experiment [1] is commercial purified human IgG1 (human). Put plainly: SPR; Biacore X100, HBS-EP+; TB-PIGS captured on protein A coupled to a CM5 chip; FcγR as analyte, 40 μL/min; affinity of one FcγR for a single arm. Background: Surface plasmon resonance follows binding to a sensor surface in real time, without labels.
Experiment [2] has the same target. Description: SPR; Biacore X100; protein A on a CM5 chip, IgG or TB-PIGS captured; human CD32a as analyte, 4000 nM to 125 nM in 2-fold dilutions; HBS-EP+; 40 uL/min, contact 90 s; steady-state affinity analysis.
Experiment [3] concerns the target commercial purified murine IgG2a (mouse). Put plainly: SPR; Biacore X100; protein A amine-coupled on a CM5 chip, IgG or TB-PIGS captured on it; CD64 (human or mouse) as analyte, 240 nM down to 1.875 nM in 1:2 dilutions; HBS-EP+; 40 uL/min, contact 135 s, dissociation 600 s; 1:1 model, but for human TB-PIGS from wild-type plants the 'Heterogeneous antibody with aglycosylation' model (two sets of values).

We go through four molecules from PMC6230950.

On to “human CD16a (FcγRIIIa) (from UniProt P08637 17-208) (receptor)”, for which the Kd in experiment [1] is 673 nM. This counts as sub-micromolar.

With “human CD32a (FcγRIIa) (from UniProt P12318 34-217) (receptor)”, the Kd in experiment [2] stood at 880 nM.

Turning to “human CD64 (FcγRI) (from UniProt P12314 16-292) (receptor)”, the dissociation constant (Kd) in experiment [1] is 0.27 nM. This counts as sub-nanomolar.

B1: mouse CD64 (FcγRI) (receptor)
chain: EVVNATKAVITLQPPWVSIFQKENVTLWCEGPHLPGDSSTQWFINGTAVQISTPSYSIPEASFQDSGEYRCQIGSSMPSDPVQLQIHNDWLLLQASRRVLTEGEPLALRCHGWKNKLVYNVVFYRNGKSFQFSSDSEVAILKTNLSHSGIYHCSGTGRHRYTSAGVSITVKELFTTPVLRASVSSPFPEGSLVTLNCETNLLLQRPGLQLHFSFYVGSKILEYRNTSSEYHIARAEREDAGFYWCEVATEDSSVLKRSPELELQVLGPQSSAP
In experiment [3], B1 yielded a Kd of 4.8 nM, a koff of 0.0105 s⁻¹ and a kon of 2.18e+06 M⁻¹ s⁻¹.

The term Kd denotes a measure of binding affinity in units of concentration. A higher Kd goes with weaker binding. As usually defined, the koff is a measure of how fast the partners let go of each other. Read a high koff as a short-lived complex. A word on the kon: it is a measure of how fast the partners come together. High values mean fast association, low ones slow association.
